Experiment: soluble on expression in E. coli; label from the status in PepcDB or PDB records

Sequence	soluble on expression in E. coli
MQSHTFTRSRGVPIYMNGSVSHQRLYDRLSEPSTSRQLPRSISLAPTGHHRTGSTRIDREQVDTSLPVTYIPRFHDESAVRRMNYRQIPGTDIRMSKIGFGAAAIGGMFGNVEDSIIKIVETAIKQGINYIDTGYWYSQSRSESILGKALSKIPRKAYYISTKVGRFELDYARTFDFRADKILESLTNSLKRLQLTYIDICYVQIHDADFAPNESIVLYETLQALEMAKSSGKIRHIGLTGYPLGKLVYSFRYVWNAPKLYFSVNLSITRNIAVINSGALCWGLLTEKGPPPWHPASDEIKEACLAATTYCSSKNISISKLALDYALNFPNVICCLVGMDSVQQVLDNLELSNFSRITDVEQRVRDRIMRRYLDRLENAGWEGVDVAQYWKKLKKLGLTALATHRHSSVESLASTLNGFSLYSSNSSSELRTPRRRRPF	not soluble
MGSDKIHHHHHHEQEDKVSGEKTLAVVSASSDDRPSTRGIINDNTYALGVFRTTANTYAPLYNVKHIYSGGEWGADDVIKVDYRNASFFAYYPYHTATGNYAGLAGGTTLTLQAQLFNAGEDICYGAGEASGGGPVSVYNPFVEFLNMKHAYARLRLTLTRGEKFDKTKKCNIQNITFKSNNANFYLTRSLDIASTAGATGGSAVAAGYVHNPNVNIATGKSVTYEYMFPPQPLDGSKLTILVTVDGVTRSCDISTLGSSLDSGKYYGVSLTFTDVGIILSSAVVTVNNFGGQGNTQVDTEL	not soluble
MKRPDYRTLQALDAVIRERGFERAAQKLCITQSAVSQRIKQLENMFGQPLLVRTVPPRPTEQGQKLLALLRQVELLEEEWLGDEQTGSTPLLLSLAVNADSLATWLLPALAPVLADSPIRLNLQVEDETRTQERLRRGEVVGAVSIQHQALPSCLVDKLGALDYLFVASKPFAERYFPNGVTRSSLLKAPAVAFDHLDDMHQAFLQQNFDLPPGSVPCHIVNSSEAFVQLARQGTTCCMIPHLQIEKELESGELINLTPGLLQRRMLYWHRFAPESRMMRKVTDALLEYGHKVLRQD	not soluble
MSLSHIRPDFPEPYGLPVDGLRGKTSIFSHPVYLFLREFSLQDSRGGSLSKKAESLSSGKITIGTKEKVIIINELRQCHPLSQLLVIADLPRSTFYYHVKRLNAPDPYQLVKQVILRIYHQHKGRYGYRRIRLACRNESILLNGKTIRKLMKELGISSLIRRKKYRTYRGEQGRTCNNLLKRQFYADRPNQKWVTDVTEFKVDGRKLYLSPIMDLYNGEIVSYNLTERPLASMVKSMLLDAVEQLNKDDKPLLHSDQGWQYQMPRWQRWLSDNGITQSMSRRGNCLDNAAMESFFSTLKEGHHHHHH	not soluble
TARELLDADRGRDSMVAAAYHSGTLSGKTVTEAARQGDVFAIEVFDDFAEWMGRALSIVCDVLDPGQIVIGGGLSTSSDLFLEKATQHMAQQIVGAGYRPLPTVVCAELGGDAGMIGVSDLARRRV	not soluble
MGSDKIHHHHHHMTETTLPPLIQQMLQPGFYPHEVTEPIQLIQTHVSSVLLTGEYAYKLKKPVNFGFLDFSTLEKRQHFCQEELRLNQRGAAELYLEVLPISLVGEQYTLGGTGEAVEYVLKMRQFPQDGLFSELFAQGKLTESHLEELGKVVAQYHAKTETNDYIRSFGEVPQVQAAFDENYQQTEKYIGGPQTQLQFDETKAYTERFFAEKQELFQRRIQNNYIRECHGDLHLRNICLWQDKILLFDCIEFNEPFRFVDVMFDVAYAVMDLDAQQRPDLSNAYLNTYLEQTGDWEGLEVLPIYLNRQSYVRAKVTSFLLDDPSVPATVKEEATKTASTYYKLAWEYTKPKQGKLILMSGLSGSGKSTTAKYLARQLDAIQIRSDAVRKHLGGISLWERGGDDLYTPEMTQKTYARLLNLGTILANQGYTVILDAKYDKQNLRQEAIAQAEKHHLPLQIIHCTAPIEVIQERLIKRTGDIADATVDLLSSQLQQTEPFTDQEKPYVQTWDTTQPPHVIGNR	not soluble
MGSDKIHHHHHHLLDYAGAIEEFSHALQLTPYFAEAYLQRGLAYYDSGAILKAVSDYTEALKLNPESVEAYYCRGLARVALKNLPGALEDVERAIRLNLNYAAAYNLRGMVRRKQGYVQDAIANFKKAAQLYLEQQDKENCRLCLERIKQLQPQELPVLQQSRSPNAPILSTNDYFTQLLEKAEKGDTQEALADLNWVLKADSQDAQAYCCRGVVRCKMGDYREAIADFNQALRLNFQDAIVYRNRGKARSILGDHQGAIADLNQALQMQPQDALVYIARGNAYRSTGNYLGAIQDYTQALQINPDDAQAYYNRGIAYTCLEEMQNAVEDYQRAASIFCEQEDWGNYQQVLSSLEKIQKFSPQSKKQKYNLLHQRLLQMVGGYWEIAERLIQQKQDYHPGMSDEWYLQKVIDDLERDRGR	not soluble
MDTIQKRPRTRLSPEKRKEQLLDIAIEVFSQRGIGRGGHADIAEIAQVSVATVFNYFPTREDLVDDVLNKVENEFHQFINNSISLDLDVRSNLNTLLLNIIDSVQTGNKWIKVWFEWSTSTRDEVWPLFLSTHSNTNQVIKTMFEEGIERNEVCNDHTPENLTKMLHGICYSVFIQANRNSSSEEMEETANCFLNMLCIYK	not soluble
MFNYSTKDANLSNKTILVTGAGAGIGRTAALTYAQLGATVILLGKTVSKLEAVYDEIVALGLAEPAIIPLDLKGATKQNYIDMSSTISSQFGHLDGVLLNASILGELTPFTQMHEQVFNDVMKVNVTAQCLLAQTLIPTLLLAPNASLVFTSSGVGSQGRAYWGQYSISKFATEGMMQVIADEYEGSNLRTNAINPGATNTNMRSCAFPAEDKDELATPEDIMPLYVYLMSDDSLEINGQTLKAQ	not soluble
GPGSMIQIIAPRGPLQEMLLLELQGKVVIPPKLLEEERERQRIPNSSEEEVKACSQVTGGKRLREDGECGVNVDTNQVVEVPLGCVVWDSRNETRCSLQIGTVEVSGSYGKRREPLLVLKRCVVGDKTADAEGAVACEYSESSGSQCCLLQEWLQEHPEELTLDATVRGATVPRKVYELVGVVERYIHLNSKPLRRFV	not soluble
MGSDKIHHHHHHMSDTLIELRNIGKRFGGVRALDGVSLAIRPGEIHCLAGENGSGKSTVIKVMSGIYTPEEGEILIDGRPVGRLDPIRAVQHGVQVIYQDFSLFGNLTVAENLALNTYVLEGRRRMDWRRARTMAVEVLARLGVDIDPDAEVGTLPTSGRQVVAIARAILAKARLIIMDEPTTALTRHEVDALFAIVRDLQAQGIAVLFVSHKMREMLEISERLTVFRNGRKVAEGPMSDFDEAAITHAMTGLSLTDDPYRPTLPPGPPLLEVRKLSVPGSVQDIDLSLRPGEIVGISGLIGSGRTELARALFGMEPAMTGTLRLEGREIHPRSVQEAIALGIAYVPEDRLTEGLFLPQSIERNLVVSILERLRRGPFLDTRAVREKTLGMFRDMQIAAPSPETAVGNLSGGNAQRVMLGRWLLTGARVLILNGPTVGVDVGSKATIHRIIRDLAQREGLGVLMISDDVPELVTNCNRIHVMHRGRFVADLDGSGMTEDRINDALKTLN	not soluble
MPPIPSRARVYAEVNPSRPREYWDYEAHMIEWGQIDDYQLVRKLGRGKYSEVFEGFKMSTDEKVVVKILKPVKKKKIKREIKILENLRGGTNIITLLDVVKDPISRTPALIFEHVNNSDFKQLYQTLSDYDIRYYLYELLKALDFCHSQGIMHRDVKPHNVMIDAEKRELRLIDWGLAEFYHPRQDYNVRVASRYFKGPELLVDYQCYDYSLDMWSLGCMLASMIFRKEPFFHGHDNYDQLVRIAKVLGTDELYEYIARYHIDLDPRFNDILGRHSRKRWERFIHAENQHLVTPEALDFLDKLLRYDHAERLTAQEAMGHEYFRPVVEAHARANGTEQADGQGASNSASSQSSDAKIDGA	not soluble
MSQIISTLNNIDLVTQDKVNLISNMQIQAKYENAEYKSFIDQLIDNLNTTRSIDIYNLFLSLNSEICLNLDTVDNISKIISSYLSILNTNFTRISPSESKQKNQLAEKGINKFLVTMDANFAQMQNQDKLLPNNIDSIIEIVQEVIIFFEKNNLNYNSDFKIQLNKTLRKIKSSLILKDQKNDTYSDKESINQVEATITDQKTIQGSEKWKTLIEKIEVLKALVESERIFETSIVYNDIQNLLVNFDPKEYFPEIFFPLYKKIAPFIGNIHKNIDYYSSSIQWSIAQKMYNIDYKSFLDTLEKMPENNFLNSSSDITKNFFYETSSEVEKTPIEEHKIIADTDAIKEEIVIKQRTNNKKNQNDPVEKISNKIDEDYFEDLFDI	not soluble
MKITAIHLYAIRLPLRNPFVISYGSYSDMPSIIVKMETDEGIIGYGEGVADDHVTGESWESTFHTLKHTLTPALIGQNPMNIEKIHDMMDNTIYGVPTAKAAIDIACFDIMGKKLNQPVYQLIGGRYHEEFPVTHVLSIADPENMAEEAASMIQKGYQSFKMKVGTNVKEDVKRIEAVRERVGNDIAIRVDVNQGWKNSANTLTALRSLGHLNIDWIEQPVIADDIDAMAHIRSKTDLPLMIDEGLKSSREMRQIIKLEAADKVNIKLMKCGGIYPAVKLAHQAEMAGIECQVGSMVESSVASSAGFHVAFSKKIITSVELTGPLKFTKDIGNLHYDVPFIRLNEKPGLGIEINEDTLQELTVFQDIVR	soluble
MICLEKVEDIPRLQELFAQILIVHHQARSDVLKVKGSKFTDKELEGVIGDANKPVFVYEDEAGTILCHLFLIIKEVSENDGPQKPIKTLFIDDLCVEEKARGQKLGEKLYQFALDYATEQECYNATLHVWNDNQGTLDFYEHLGVKPRYTEMKTVLKLEHHHHHH	not soluble
MAHHHHHHMHLDEEYGNRSSSVSCDSSDAASAHSSSSDSASSAGGRQQRQRGNGSGGTETASLLSLPTASHANHAGCSVCGSATSLASRVSLLSTLSQHSAASYLSFISVLRPSITAGSAAGGTGAGGSADGDGAAGAGQQMHESEDGNTNLPLILLEQLALGLHRFMEAYPAELLDRYGLRSVSWSSIARMFATVEKSLVNTTTTAGAAAGAAAAAAPRQANHFPNDQEPPQPLFNLAQDIRYNKGMGYECLGLLFAKVVAPLLDPASSRAIASTSWSPPQQHQLRRSTGEATGTEDDDGSGGGARSDGGGTQEEFFANAAAVAATVGRAVLTIDDDPATRASVEAALSRCLTAYETVAPQVVDMNLPTILRLAARTAATSAGSTTSLRASASPSSLSIVLVDFVRDITARLGRGNDLPHLVDALLQRGDFAANASATAAASAVVDGSGDKASTIRSLRAVFSLPPVRQAVMEAAGTSLDPESLLRRLSGVAAELEEDNKSSSSSSSAQDEKQVELSSTARSCRKHDDARVQRMLLALELMEALLAGVTPTCVSASAVLEHTTQLELLLSSSFMAAVEELKGVCGEALDDRRALMIQHMYTIRQCRAVTILCLQDLGTQQVHDYLRMLEDALWQLTSHVGNLVGSLTLAELQPLLRPHPARYGGSEVLAPSPSALEQLQVQLLPSSLILQRPVASARSDRRPGNSRRARRGAP	not soluble
RNMDASPLAKRNSLQLFTDGQEKFQALFEDIRAAKETVHVEYYAFFNDTIGNQFLDVLIEKLHEGVEVYLIYDPWGSPGANKKFFARYVDAGGKVAPFITSRDMIRKTRLNYHLHRKIVVIDGKIGWTGGFNVGDQYLNVTEKFGYWRDTHIRLVGTAVFSLQEIFIMDWNASVKYPEERMTYHEKYFKLPEDHEVEHLSLQVVSDGPDSEEEILKSG	not soluble
MAHHHHHHMSTIYNAVDASTLNDRCRTDLLDTVAQLGRHCETLPKKAVTTADAPLPSCTFNTTVSRSQKEINCSNEAALDKYIEEKGATRWRTTQALASTYFKDHKPKFHGALRTQDCFRDTRDITQLSSKEKDFVHRYAEAKMKKSIPREESDDVAKKVATEAYTEAFRKFKGRDPTEKELLEVERLYFAYADDGAVGVVQKPHFHGPHMHVSICNRKYVTCPNQVYRASLPAVRNARSRFPGPIPVWTSTKNLHAVVSNDTYRPGVHNVSKFGETSSK	not soluble
